For 40 molecules, Kd, t1/2 and Ki results are on record in US20240000957A1 (published 2024).

*1 amine or outer side, *2 acyl side, *3 side chain or, on linkers, in order; H or OH if unused. Bridges are numbered along the chain shown (N, C = ends). Where no end group is shown, it is not given here. [ ]: non-standard residue; d: D form. TATA = O=C(CC[*:1])N1CN(C(=O)CC[*:2])CN(C(=O)CC[*:3])C1; 2Nal = N[C@@H](Cc1ccc2ccccc2c1)C(=O)O; βAla = NCCC(=O)O; Sar = CNCC(=O)O

B1: BCY6032 (peptide)
peptide: AXDCPLVNPLCLHPGWTC
modifications: not fully specified; N-terminal (β-Ala)-Sar10 spacer precedes SEQ ID NO: 11; HArg (homoarginine) at residue 2 of SEQ ID NO: 11; three Cys cyclised on the TATA scaffold; DM1-SS-(Me)- (DM1-SPP) on the N-terminal amine
B2: BCY6031 (peptide)
peptide: AXDCPLVNPLCLHPGWTC
modifications: not fully specified; N-terminal (β-Ala)-Sar10 spacer precedes SEQ ID NO: 11; HArg (homoarginine) at residue 2 of SEQ ID NO: 11; three Cys cyclised on the TATA scaffold; DM1-SS- (DM1-SPDB) on the N-terminal amine
B3: BCY6034 (peptide)
peptide: AXDCPLVNPLCLHPGWTC
modifications: not fully specified; N-terminal (β-Ala)-Sar10 spacer precedes SEQ ID NO: 11; HArg (homoarginine) at residue 2 of SEQ ID NO: 11; three Cys cyclised on the TATA scaffold; TrpCit-MMAE (MMAE-PABC-Cit-Trp-glutarate) on the N-terminal amine
B4: BCY6026 (peptide)
peptide: ACPLVNPLCLHPGWSCRGQ
modifications: linker 2-9-16 via TATA
notes: Bicyclic peptide on a TATA scaffold, no toxin; Made on Rink amide resin; also called Compound 87; Bicycle Compound Number 87
B5: BCY6064 (peptide)
peptide: AXDCPLVNPLCLHPGWTC
modifications: not fully specified; as BCY6014 (N-terminal (β-Ala)-Sar10; HArg; TATA scaffold on the 3 Cys) + Non-cleavable (DM1)
notes: Bicycle drug conjugate (BDC)
B6: BCY6063 (peptide)
peptide: AXDCPLVNPLCLHPGWTC
modifications: not fully specified; as BCY6014 (N-terminal (β-Ala)-Sar10; HArg; TATA scaffold on the 3 Cys) + Non-cleavable (MMAE)
notes: Bicycle drug conjugate (BDC)
B7: BCY6077 (peptide)
peptide: AXDCPLVNPLCLHPGWTC
modifications: not fully specified; as BCY6014 (N-terminal (β-Ala)-Sar10; HArg; TATA scaffold on the 3 Cys) + DM1-SS-(Me)-SO3H-
notes: Bicycle drug conjugate (BDC)
B8: BCY6062 (peptide)
peptide: AXDCPLVNPLCLHPGWTC
modifications: not fully specified; as BCY6014 (N-terminal (β-Ala)-Sar10; HArg; TATA scaffold on the 3 Cys) + D-TrpCit-MMAE
notes: Bicycle drug conjugate (BDC)
B9: BCY6034 (peptide)
peptide: AXDCPLVNPLCLHPGWTC
modifications: not fully specified; as BCY6014 (N-terminal (β-Ala)-Sar10; HArg; TATA scaffold on the 3 Cys) + TrpCit-MMAE
notes: Bicycle drug conjugate (BDC)
B10: BCY6038 (peptide)
peptide: Ac-CPLVNPLCLHPGWTCLHG
modifications: linker 1-8-15 via TATA; not fully specified (C-terminus); also: TrpCit-MMAE conjugated, site not given here
notes: Bicycle drug conjugate (BDC)
B11: BCY6037 (peptide)
peptide: Ac-CPLVNPLCLHPGWTCLHG
modifications: linker 1-8-15 via TATA; not fully specified (C-terminus); also: ValCit-MMAE conjugated, site not given here
notes: Bicycle drug conjugate (BDC)
B12: BCY6055 (peptide)
peptide: AXDCPLVNPLCLHPGWTC
modifications: not fully specified; as BCY6014 (N-terminal (β-Ala)-Sar10; HArg; TATA scaffold on the 3 Cys) + DM1-SS-(Me2)-
notes: Bicycle drug conjugate (BDC)
B13: BCY6035 (peptide)
peptide: Ac-CPLVNPLCLHPGWTCLHG
modifications: linker 1-8-15 via TATA; not fully specified (C-terminus); also: DM1-SS- conjugated, site not given here
notes: Bicycle drug conjugate (BDC)
B14: BCY6036 (peptide)
peptide: Ac-CPLVNPLCLHPGWTCLHG
modifications: linker 1-8-15 via TATA; not fully specified (C-terminus); also: DM1-SS-(Me)- conjugated, site not given here
notes: Bicycle drug conjugate (BDC)
B15: Compound 68 (peptide)
peptide: Ac-ARDCPLVNPLCLHPGWTCA
modifications: linker 4-11-18 via TATA; not fully specified (C-terminus); printed as Ac-ARDCPLVNPLCLHPGWTCA-Sar6-(D-K)
B16: Compound 89 (peptide)
peptide: [βAla][Sar][Sar][Sar][Sar][Sar][Sar][Sar][Sar][Sar][Sar]ACPLVNPLCLHPGWSCRGQ
modifications: linker 13-20-27 via TATA; not fully specified (C-terminus); printed as (β-Ala)-Sar10-ACPLVNPLCLHPGWSCRGQ
B17: Compound 69 (peptide)
peptide: AXDCPLVNPLCLHPGWTCA
modifications: not fully specified; N-terminal Ac; HArg; C-terminal -Sar6-(D-K); TATA scaffold on the 3 Cys
B18: Compound 78 (peptide)
peptide: CPLVNPLCLHPGWTCLXG
modifications: not fully specified; N-terminal Ac; D-His; C-terminal -Sar6-(D-K); TATA scaffold on the 3 Cys
B19: Compound 76 (peptide)
peptide: ACPLVNPLCLHPGWTCLXG
modifications: not fully specified; N-terminal (β-Ala)-Sar10; D-His; TATA scaffold on the 3 Cys
B20: Compound 92 (peptide)
peptide: CPLVNPLCLHPGWSCXGQ
modifications: not fully specified; N-terminal Ac; HArg; C-terminal -Sar6-(D-K); TATA scaffold on the 3 Cys
B21: Compound 79 (peptide)
peptide: ACPLVNPLCLHPG[2Nal]TCLHG
modifications: linker 2-9-16 via TATA; not fully specified (C-terminus); printed as ACPLVNPLCLHPG(2Nal)TCLHG
B22: Compound 74 (peptide)
peptide: Ac-CPLVNPLCLHPGWTCLHG
modifications: linker 1-8-15 via TATA; not fully specified (C-terminus); printed as Ac-CPLVNPLCLHPGWTCLHG

T1 sequence (P29317 24-537 limits assumed): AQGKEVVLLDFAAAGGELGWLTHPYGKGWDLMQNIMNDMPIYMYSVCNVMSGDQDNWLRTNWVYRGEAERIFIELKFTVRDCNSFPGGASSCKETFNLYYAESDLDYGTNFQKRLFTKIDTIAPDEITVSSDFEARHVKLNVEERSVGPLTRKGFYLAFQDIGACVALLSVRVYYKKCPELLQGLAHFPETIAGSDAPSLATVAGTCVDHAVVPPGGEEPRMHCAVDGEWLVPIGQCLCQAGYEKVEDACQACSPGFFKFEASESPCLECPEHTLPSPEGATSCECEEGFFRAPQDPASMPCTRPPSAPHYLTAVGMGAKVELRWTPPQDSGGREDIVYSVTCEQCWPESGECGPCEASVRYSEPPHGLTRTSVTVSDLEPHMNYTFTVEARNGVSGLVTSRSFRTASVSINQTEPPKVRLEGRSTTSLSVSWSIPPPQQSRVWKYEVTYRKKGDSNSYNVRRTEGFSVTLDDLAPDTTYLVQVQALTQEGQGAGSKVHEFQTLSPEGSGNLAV

One assay addresses T1, Human EphA2 (Human, UniProt P29317 24-537, limits assumed, biotinylated, 0.95 mol biotin/monomer).
T1 construct: also called Eph receptor tyrosine kinase A2
The experiment in a line: SPR, biotinylated EphA2 on streptavidin chip. (Surface plasmon resonance follows binding to a sensor surface in real time, without labels.)
What is called Kd is the equilibrium constant for the complex coming apart. A low value points to higher affinity. B1 showed a Kd of 2.1 nM and a t1/2 of 2.2 min. In turn, B2 registered a Kd of 1.99 nM and a t1/2 of 2.3 min. Regarding B3, binding was put at a Kd of 1.64 nM and the t1/2 worked out at 3.2 min. B4 came in with a t1/2 of 11.3 min.

Another assay deals with T2, Mouse EphA2 (Ecto) (Mouse, UniProt Q03145 26-538).
T2 construct: extracellular domain; Fluorescence polarisation assays; not shown: Fc fusion (R&D Systems 639-A2) or C-terminal polyHis (Sino Biological 50586-M08H)
T2 sequence (Q03145 26-538): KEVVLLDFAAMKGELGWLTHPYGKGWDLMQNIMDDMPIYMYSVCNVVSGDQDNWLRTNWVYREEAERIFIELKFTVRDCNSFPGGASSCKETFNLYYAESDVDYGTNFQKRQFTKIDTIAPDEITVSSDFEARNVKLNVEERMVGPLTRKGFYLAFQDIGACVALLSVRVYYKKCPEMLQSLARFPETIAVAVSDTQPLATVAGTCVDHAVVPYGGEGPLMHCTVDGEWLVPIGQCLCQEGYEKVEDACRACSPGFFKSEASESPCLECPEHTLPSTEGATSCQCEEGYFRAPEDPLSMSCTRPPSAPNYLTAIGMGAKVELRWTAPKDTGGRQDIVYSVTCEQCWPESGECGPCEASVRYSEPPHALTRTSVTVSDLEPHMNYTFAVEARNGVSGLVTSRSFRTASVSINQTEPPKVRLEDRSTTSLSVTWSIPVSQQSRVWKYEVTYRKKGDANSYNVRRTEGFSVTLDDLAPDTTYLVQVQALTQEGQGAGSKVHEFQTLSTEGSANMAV
Nature of the assay: FP competition vs Reference Compound C (Study 2).
The term Ki denotes the equilibrium dissociation constant of an inhibitor or competing ligand from its target. Low readings indicate tighter binding, high ones weaker binding. Turning to B5, the Ki worked out at 40.7 nM.

B6: the Ki was 66.8 nM. Regarding B7, the inhibition constant Ki came out at 25.3 nM. This Ki is about 2.6-fold lower than that of the molecule before. As for B8, the affinity corresponds to a Ki of 20.3 nM. B9: the Ki is 35.9 nM.

The target in the next assay is T3, Human EphA2 (Ecto), C-terminal polyHis (Human, UniProt P29317 24-537).
T3 construct: extracellular domain; R&D systems 3035-A2 or in-house
T3 sequence (P29317 24-537): as the sequence (P29317 24-537 limits assumed) above
The experiment in a line: FP competition vs Reference Compound C (Study 2).
In turn, B10 gave a Ki of 2.8 nM. B5 returned a Ki of 12.5 nM. Consider B11, for which the Ki came to 7.3 nM. For B6, affinity was put at a Ki of 7.8 nM.

B7 returned a Ki of 6.5 nM. The Ki values of the last two molecules are within 1.5-fold of each other. B12 showed a Ki of 15.8 nM. Against the preceding molecule, the Ki is about 2.4-fold higher. On to B8, for which the inhibitory constant (Ki) is 12.9 nM. For B13, the Ki worked out at 15.2 nM. The same measure, in the same setting: next, B14: 18.6 nM. The molecule B9 registered an inhibition constant (Ki) of 5.9 nM.

Another assay addresses T2, Mouse EphA2 (Ecto). The experiment in a line: FP competition vs Reference Compound C.
As for B15, the Ki stood at 166 nM. Same read-out and setting: to B16 belongs 29.6 nM. Still for that read-out and setting: to CPLVNPLCLHPGWTCLHG (N-terminal Ac; C-terminal -Sar6-(D-K); TATA scaffold on the 3 Cys, also called Compound 77) [BCY6019] belongs 48.2 nM; to B17, 164 nM. The same measure, in the same setting: next, ARDCPLVNPLCLHPGWTCA (linker 4-11-18 via TATA; not fully specified (C-terminus)) [Compound 65]: 39.1 nM; AXDCPLVNPLCLHPGWTC (N-terminal (β-Ala)-Sar10; HArg; TATA scaffold on the 3 Cys, also called Compound 67) [BCY6014]: 61.7 nM; B18: 115 nM. In turn, ACPLVNPLCLHPGWSCXGQ (not fully specified; N-terminal (β-Ala)-Sar10; HArg; TATA scaffold on the 3 Cys) [Compound 90] gave a Ki of 47 nM.

Consider B19, for which the affinity corresponds to a Ki of 75.2 nM. Still for that read-out and setting: to B20 belongs 75.3 nM. For CPLVNPLCLHPGWSCRGQ (N-terminal Ac; C-terminal -Sar6-(D-K); TATA scaffold on the 3 Cys, also called Compound 91) [BCY6042], the Ki is 49.9 nM. The molecule ACPLVNPLCLHPGWSCRGQ (linker 2-9-16 via TATA, also called Compound 87) had a Ki of 18.6 nM.

In the next assay the target is T3, Human EphA2 (Ecto), C-terminal polyHis. Nature of the assay: FP competition vs Reference Compound C.
In turn, B15 came in with a Ki of 19.3 nM. In other words, the double-digit nanomolar range.

B16 yielded an inhibitory constant (Ki) of 2.86 nM. On to ACPLVNPLCLHPGWTCLHG (N-terminal (β-Ala)-Sar10; TATA scaffold on the 3 Cys) [Compound 75], for which the Ki was found to be 2.48 nM. For the molecule B21, the Ki stood at 162 nM. RPACPLVNPLCLHPGWTCA (linker 4-11-18 via TATA; not fully specified (C-terminus)) [Compound 70] registered a Ki of 10.1 nM. RPPCPLVNPLCLHPGWTCA (linker 4-11-18 via TATA; not fully specified (C-terminus)) [Compound 71] had a Ki of 11.1 nM. For ACPLVNPLCLTSGWKCA (linker 2-9-16 via TATA; not fully specified (C-terminus)) [Compound 52], the Ki turned out to be 115 nM.

CPLVNPLCLHPGWTCLHG (N-terminal Ac; C-terminal -Sar6-(D-K); TATA scaffold on the 3 Cys, also called Compound 77) [BCY6019] registered a Ki of 5.41 nM. On the same count and under the same terms, to ACGFMGLVPCELYCADN (linker 2-10-14 via TATA; not fully specified (C-terminus)) [Compound 51] belongs 84.4 nM; to B17, 17.5 nM.

ARDCPLVNPLCLHPGWTCA (linker 4-11-18 via TATA; not fully specified (C-terminus)) [Compound 65] had a Ki of 6.05 nM. For the molecule ACPLVNPLCNLPGWTCA (linker 2-9-16 via TATA; not fully specified (C-terminus)) [Compound 56], the affinity, expressed as Ki, was 184 nM. The same measure, in the same setting: next, AXDCPLVNPLCLHPGWTC (N-terminal (β-Ala)-Sar10; HArg; TATA scaffold on the 3 Cys, also called Compound 67) [BCY6014]: 8.51 nM; ACPLVNPLCLYGSWKCA (linker 2-9-16 via TATA; not fully specified (C-terminus)) [Compound 63]: 59 nM; ACPLVNPLCLMPGWGCA (linker 2-9-16 via TATA; not fully specified (C-terminus)) [Compound 59]: 114 nM. Still for that read-out and setting: to B18 belongs 15.6 nM; to ACPLVNPLCLLDGWTCA (linker 2-9-16 via TATA; not fully specified (C-terminus)) [Compound 58], 38.4 nM; to ACPLVNPLCLHPGWSCXGQ (not fully specified; N-terminal (β-Ala)-Sar10; HArg; TATA scaffold on the 3 Cys) [Compound 90], 5.41 nM. Consider ACPLVNPLCLMTGWSCA (linker 2-9-16 via TATA; not fully specified (C-terminus)) [Compound 61], for which the Ki worked out at 242 nM. This Ki is about 45-fold higher than that of the molecule before. B22 returned a Ki of 1.76 nM. Compared with the last molecule, the Ki is about 140-fold lower. Take B19: the Ki is 10 nM. This Ki lies about 5.7-fold higher than the previous one. The same measure, in the same setting: next, ACPLVNPLCMIGNWTCA (linker 2-9-16 via TATA; not fully specified (C-terminus)) [Compound 60]: 96.2 nM; ACPLVNPLCMMGGWKCA (linker 2-9-16 via TATA; not fully specified (C-terminus)) [Compound 62]: 67.1 nM; B20: 10.6 nM. For CPLVNPLCLHPGWSCRGQ (N-terminal Ac; C-terminal -Sar6-(D-K); TATA scaffold on the 3 Cys, also called Compound 91) [BCY6042], the affinity, expressed as Ki, was 5.98 nM. For ACPLVNPLCLHPGWSCRGQ (linker 2-9-16 via TATA, also called Compound 87), the Ki was 2.57 nM.
